Measured values: the DeepSol protein solubility set

Experiment: soluble on expression in E. coli; label from the status in PepcDB or PDB records

Sequence	soluble on expression in E. coli
MNLLQHIAQSRQQLRKSELKVADHVLNDPASVMHSSMAELAHGVGVSEPTIVRFCRAIGCSGFQDLKLKLAQSLAAGASFGQFSIHESDSVADFSLKIFDTTLHSLMEVREHLDTHALERAIAAIAHAQRVEFYGFGASGAVASDAQHKFFRLLLSAAAYSDPHMQAMSAVTLKPSDVAICISQSGRSKDLLITANLVREAGATLITLCPSQTPLADLATVNLAIDVHEDTDIYTPLTSRIAHLVVIDVLAMGVAMARGPDLVNHLKSVKRSLRSLRLSPKVMKNQEERGEPS	not soluble
AQKSVKISDDISITQLSDKVYTYVSLAEIEGWGMVPSNGMIVINNHQAALLDTPINDAQTEMLVNWVTDSLHAKVTTFIPNHWHGDCIGGLGYLQRKGVQSYANQMTIDLAKEKGLPVPEHGFTDSLTVSLDGMPLQCYYLGGGHATDNIVVWLPTENILFGGCMLKDNQATSIGNISDADVTAWPKTLDKVKAKFPSARYVVPGHGDYGGTELIEHTKQIVNQYIESTSKP	soluble
MRLALAVLILLLSIAPAMALCSYEVVEERYADPFTVDISSMPSLKDLPVDDPSDGIDWVKVPLPKPCVNGMGKDTFIMVRKGSSNNLLIFFEGGGACADYETCKPMLCTDLKSCKPLLGIGSVVALESNFCFLKLYYRGGIFDVKKAENPFRDWTIVFVPYNTGDLHMGNRVVRYFDDGKEKTIYHVGYVNAIVAMRWIKENGNFDRIVVAGSSAGGYATLLHGYTAWSIFGKPVTVINDAGPGINPDSDSKFQVNEIMERWGSKQNFPPEALQYFEGKDPAYAIEYFLDKCSDCVYGFFEDQKDLVIGSVFSAYWPWQFKTRLLKVTDELRDYSDRYCRFLPYDYQHTVLTGGLLYPLQKDRFYCEKVGGYRVYEWVKELLRGNCVDLVELEHHHHHH	not soluble
MNRVKYTIKCTILQGKIKERLIKNIHLNEMNLRNWSTLKWSTRV	not soluble
MQFPSSYWIESTQLPTFPPLSENIKTKVAVIGAGITGITTAYLLAKEGIDVVLIDSGLILNGTTGHTTAKITAQHDLIYDELINHFGMEKAGLYYESNNHALQFINETVQTYKIDCNFSNEDSYLYTTTDKGLRNLSKEYEAYQKLNIPCDYVQSLSIPIPVQSALVMKNQAQFHPLLYLKTLLAKFVEMGGKVYEQTTAMDVEKGDSPQIITKEGHRITCEYVVSCSHFPLEHHHHHH	not soluble
MAHHHHHHMADYNAAGADTAVVDDNVPPGITTKQDEIIQYVAKYVVASCDGARYQDKVRTRTKHNPYFDFLNAKHPYHQYYQYLLESYRHWMRNSEAVGAGTWGGGVDATQGQGQQQQWNEEDYYQYYGAYAGQASGIEFQGNAAGQLG	not soluble
RKLATAAKVSAMGSLNDLFESVSDRLRDSGRLIVVDEAENLPLRALEIVRRLHDETGCGLVLSGMPRLVANLRGKHGELVQLYSRVSVALNLGESLPDDELFEIAKAALPDAVKHLLPDSVQALITVIGFNETLELVRLMGGTTYPLRQGYTKNSQSRVAYLEEIIGSEAAGRLVEAMAPCNLFIPRCETALYELRNRKIRSQFDRQTAGGTPAYEAVNDLALAHRLSDRHVWRILKQADKEAEQENLF	not soluble
MAHHHHHHMGQGLTGGAMAGAALSITALPLRLTLADHLGICGAATACGLALDFASDCCSKEGRVIIHRDVLLKAQDPLRHLSTFYTTCESNRMARLFRQKHEWVVLESHGQQYYVVQKNPATGDVLMDVRNSLRAANDVGLQVAGKPMHTGEIRQHRMETEFDLPSDLQVAYVIAWLRKEDPRWAFSTENSRQFTARVRYALMDF	not soluble
TAKQRDDAIENAEAAKVESEQVAKKATEGELHLAEVLEQANLNSIELKSVSQALDEQSSQLDEQVNALNVNSESQASAAEQMSQQVHHMATGIEESSKFVEELREKSEDVHQQAEKSSELLEDSTQAIGQIITSHEEIMKVADLITSVAEANQLAGFKCGNRSGASRRSGQRFCCGCRASTRAICEE	not soluble
MCMSWSKVKYFFFDTPEEKEAAQYSYEKEQTDMKKQQDPPEQQDVTFPKAQPKQNVVSIETAKQSSKVVLLEPRTYSEAQGIADHLKGRRAVVINLQRMSTDQAVRIVDFLSGTVYAIGGDIQKIGPKTFMTPENVDIVGAISELFGEEEDTNIKRWLEHHHHHH	soluble
MAQDGDRHHIFVSAPPPPPPSSSIPAPSQPNRLEKEPLIDEETDMIDESRATYWKGCEFLKASGLYSSKCELV	not soluble
MGSDKIHHHHHHENLYFQGMRDHVEIGIGREARRTYSLDDISVVSSRRTRSSKDVDTTWHIDAYKFDLPFMNHPSDALASPEFVIEMGKQGGLGVINAEGLWGRHADLDEAIAKVIAAYEEGDQAAATRTLQELHAAPLDTELLSERIAQVRDSGEIVAVRVSPQNVREIAPIVIKAGADLLVIQGTLISAEHVNTGGEALNLKEFIGSLDVPVIAGGVNDYTTALHMMRTGAVGIIVGGGENTNSLALGMEVSMATAIADVAAARRDYLDETGGRYVHIIADGSIENSGDVVKAIACGADAVVLGSPLARAEEAAGKGYFWPAVAAHPRFPRGVVTESVDLDEAAPSLEQILHGPSTMPWGVENFEGGLKRALAKCGYTDLKSFQKVSLHVN	soluble
MGSDKIHHHHHHMPKSVQDDAIEAGTLLSVQGLTVGLPPGMDRRYAVEDMSFDLKAGEILCIIGESGSGKSVTANATMGLLAQSLHIVSGSIMLEGQELVGADAATLRALRGRIVSMIFQDPLSALNPLMTVGDQIAEVMEAHGIGTQQERRARVLDLITEVGLPDPELMQHQYPFRLSGGQRQRVMIAMALALEPKVLIADEPTTALDVTTQAQILELIASIQRRKQMSVMFITHDFGVVAEIADRVIVMEKGHVVEQGSASVVLKSPDHPYTQRLIAAVPRMRASDRENEADTPVVLEARNLCKTYGTGSGFLSKGRVIKAVDDVSFTIAKGRTLGIVGESGSGKSSLGRLLVKLMNSDSGEILFGGRDIAPLSEEAFRSMRPYIQMIFQDPFASLNPRQTIGRILTVGPVAQATPIHEARTRAMRLLERVGLDAGAYDRYPHEFSGGQRQRIGIARALMFNPMLIVADEAVSALDVSIQAQILQLLTEVQQEMKLAMAFITHDLRVASQICDEIAVMYKGRIVEYGPPSQIFRNPTHDYTRQLVSAIPGTEWEPAVMV	not soluble
HYNTEILKSIDNEWRKTQCMPREVCIDVGKEFGVATNTFFKPPCVSVYRCGGCCNSEGLQCMNTSTSYLSKTLFEITVPLSQGPKPVTISFANHTSCRCMSKLDVYRQVHSIIRR	soluble
GQYDYIKVAVSLMGSAYYVDFAKELSKYALAQGLTFPYDVDERILALQKYDLTQNITKINNRPLLLWHGKKDDVVPFAYSEKLYQTLVEESLADNVEFIIDDNAKHKVSVEGMLQGVSFFEKFL	not soluble
MDRRQRFEKYDWLISKTQSILKNYECPESCNASCCRHHIIDFRRKEYEKILKNVDKESANILKSNAVKSELEGCYKAIVGQCPLLTNSKCRIYNNRPEACRNFPFVIFPDPEAGFGLTLLLCPISVNIIQDYAQWYKSVNLTMYNQLTAVYEQYKNIGENNDFCIQMKEQNLDSFIEFLEKKLEHHHHHH	not soluble
MGSDKIHHHHHHMYDNDLWFATINLPYRQKLELLRIYKTSDEILYNFKNSELIQKYKFDIEKINYIKDEMKKSGMKIVFWNDDDYPKVLKNYDDMPYGLFYMGNIKKLNELNYNVAIVGSRRCTQYGKDITTIISREISINGIGIISGMARGIDTYAHKICLENNGYTCAVLGCGADVIYPKENKNLYCQIIRNGCIISQYKPNTKPLPYNFPIRNKIISGLSNLVLVTEADIKSGSIITASSALEQGKDVGAVPGSVFSKMSRGTNKLIQDGAHVIKDIDDVFGILNFQKINFKKIRNNSSYSSMPENQRQIYDLVSDKPIHVDDIKRCLNIDIQELYELLFEMQLKNKILCLSGSYYVRVNDCL	not soluble
MFTKRHRITLLFNANKAYDRQVVEGVGEYLQASQSEWDIFIEEDFRARIDKIKDWLGDGVIADFDDKQIEQALADVDVPIVGVGGSYHLAESYPPVHYIATDNYALVESAFLHLKEKGVNRFAFYGLPESSGKRWATEREYAFRQLVAEEKYRGVVYQGLETAPENWQHAQNRLADWLQTLPPQTGIIAVTDARARHILQVCEHLHIPVPEKLCVIGIDNEELTRYLSRVALSSVAQGARQMGYQAAKLLHRLLDKEEMPLQRILVPPVRVIERRSTDYRSLTDPAVIQAMHYIRNHACKGIKVDQVLDAVGISRSNLEKRFKEEVGETIHAMIHAEKLEKARSLLISTTLSINEISQMCGYPSLQYFYSVFKKAYDTTPKEYRDVNSEVML	soluble
MSLSQLAYEKILNLIINGKYKPGNLLKEDELANTLNISRTPVREALARLERDGIIIKSGKSYSVIPLSAEDIIQIYEIRIPLEAEASKLASIRGTEEELKKMLDIIEEIKRVKEDAEPLTLAELNGKLHRTISEASHNKFLADILENIRLKLKIVRVTLFTSFQRREEELREHSEIVTAIIERNPDKAYQLMKEHELNVLEYVKKNILPILFR	soluble
MGSDKIHHHHHHMPLTMNKDVFITCAVTGSGSTQDRSPHVPRSPKQIAESAIEAARAGAAIVHCHVRDPESGAPSRDLSYYREVTDRIREADIDVVLNLTAGMGGDITFGSTDAPFPVDEAGTDMVGAAERVAHIADCLPEICTLDCGTMNFAEADYVMTNTPGMLRAMGRMMTDLGVKPEIEAFDTGHLWFAKELVKEGVLDSPALVQLCMGVPWGAPDDLNTFMAMVNNVPDNWTFSAFALGRNEMAYVAASVLAGGNVRVGLEDNLWLEKGVLATNAQLVEQAVGIIEGMGARVIGPDMVRETLGLTKQAPA	not soluble
MGSDKIHHHHHHMDIDLARTFLEIARSGSFVAAAERLHLTQTAVTARIQNLEGQLGCRLFVRNRAGARLTADGEHFLGYASQLVQTWDAARRDLPLPDGFRNLLNLGGEVSLCNPLLLNWMRRLREAIPGHAVRVEIGQGADLLKQLEQGALDAALVYQPEYWPGLQVEQLLEEKLVMVRSVLSAEPYLYVDWGPDFRSQHDAALPDRAKAALACNLGPLALQYIMQNGGSGYFRTRVVSSYLDGGTLQRVEQAPEFAYPTYLVYSRERLSPTLRHAFQLLREVVREDSDWSQRWDYVI	not soluble
MYEGKVGFDFLGFTVRQFPVGKYHSGKSSSGKLLGYKTLITPSKAKLKIHAQKIGKLIDEHKAVPQSDLIAHLNPVIRGWTNYYSCVVSKRIFNQADTTLFSQLKAWAEHRHPNKSSRWSCQKYWQTVGSDNWVFKPHNQKIRLLKHRETRIVRHILEHHHHHH	not soluble
MRPDDAIELFNSCRGHCIERQNYIENLQKRHVRKNRNVSAPRTDGLEDSADPTEQVYTNNKPVKKKPRKNRRGGHLAPSQHFQHQTQSSPYSLRKWSQNQSVYQRGLVPPPGPAGEDYSQRRFFWSARPNKWTAESYQRPFYPYYWEWNL	not soluble
